Test results reported in doi:10.1101/238154.

Key:
[1] = biological target: FlAsH tagged K63-linked diubiquitin (UniProt P0CG47); test: fluorescence polarisation
[2] = biological target: SAGA DUB module containing Ubp8^C146S (yeast) (UniProt P50102); test: ITC
[3] = biological target: SAGA DUB module containing Ubp8^C146A (yeast) (UniProt P50102); test: ITC
Sequence of SAGA DUB module containing Ubp8^C146A (yeast) (P50102 whole entry C146A, chain 1 of 4): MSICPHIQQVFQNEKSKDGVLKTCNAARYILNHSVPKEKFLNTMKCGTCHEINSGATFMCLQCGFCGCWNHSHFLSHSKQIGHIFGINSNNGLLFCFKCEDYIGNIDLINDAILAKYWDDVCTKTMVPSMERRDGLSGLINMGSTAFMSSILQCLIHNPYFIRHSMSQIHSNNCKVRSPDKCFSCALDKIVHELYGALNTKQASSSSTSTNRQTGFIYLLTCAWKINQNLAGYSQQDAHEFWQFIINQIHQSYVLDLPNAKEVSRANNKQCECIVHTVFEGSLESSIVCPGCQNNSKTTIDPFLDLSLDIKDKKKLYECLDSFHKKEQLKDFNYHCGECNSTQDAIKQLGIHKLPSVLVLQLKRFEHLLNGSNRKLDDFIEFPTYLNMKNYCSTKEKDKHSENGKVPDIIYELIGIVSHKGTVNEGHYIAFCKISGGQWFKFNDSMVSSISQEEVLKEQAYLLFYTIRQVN
Sequence of SAGA DUB module containing Ubp8^C146A (yeast) (Q03067 whole entry, chain 2 of 4, further chain): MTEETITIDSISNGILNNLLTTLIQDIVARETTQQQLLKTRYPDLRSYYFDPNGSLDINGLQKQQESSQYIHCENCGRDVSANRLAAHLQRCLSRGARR
Sequence of SAGA DUB module containing Ubp8^C146A (yeast) (Q6WNK7 whole entry, chain 3 of 4, further chain): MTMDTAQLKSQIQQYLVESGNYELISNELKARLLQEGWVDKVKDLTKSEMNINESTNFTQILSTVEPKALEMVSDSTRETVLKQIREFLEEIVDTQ
Sequence of SAGA DUB module containing Ubp8^C146A (yeast) (P53165 1-96, chain 4 of 4, further chain): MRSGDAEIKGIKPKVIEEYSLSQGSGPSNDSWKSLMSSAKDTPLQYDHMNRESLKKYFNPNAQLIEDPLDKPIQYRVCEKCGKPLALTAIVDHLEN

Sequence of SAGA DUB module containing Ubp8^C146S (yeast) (P50102 whole entry C146S, chain 1 of 4): as the sequence (P50102 whole entry C146A, chain 1 of 4) above, with A146S counted along it
Sequence of SAGA DUB module containing Ubp8^C146S (yeast) (Q03067 whole entry, chain 2 of 4, further chain): as the sequence (Q03067 whole entry, chain 2 of 4, further chain) above
Sequence of SAGA DUB module containing Ubp8^C146S (yeast) (Q6WNK7 whole entry, chain 3 of 4, further chain): as the sequence (Q6WNK7 whole entry, chain 3 of 4, further chain) above
Sequence of SAGA DUB module containing Ubp8^C146S (yeast) (P53165 1-96, chain 4 of 4, further chain): as the sequence (P53165 1-96, chain 4 of 4, further chain) above

Kd [1] [µM]	Kd [2] [µM]	Kd [3] [µM]	Substance
40	–	–	OTUD1^C320A catalytic domain (residues 287-435) (from UniProt Q5VV17 287-435) (domain or fragment)
–	4.6	0.47	K48-linked diubiquitin (from UniProt P0CG47 1-76)
